The values below come from patent US20090233850A1 (PHILADELPHIA HEALTH AND EDUCATION CORPORATION D B A DREXEL …, published 2009).

Experiment [1] addresses T1, recombinant monomeric HIV-1 YU2 gp120, produced in Drosophila S2 cells (HIV-1 YU2, UniProt P35961 32-498, limits assumed, glycosylated (high-mannose glycans are the CVN binding sites)).
T1 construct: domain: gp120
The experiment in a line: competition ELISA on plate-adsorbed YU2 gp120; competitor mAb 2G12 at 50 ug/ml; percent of control without L5.

Experiment [2] has as its target T1, recombinant monomeric HIV-1 YU2 gp120, …. The experiment in a line: competition ELISA on plate-adsorbed YU2 gp120; competitor mAb F105 at a 1:20,000 dilution; percent of control without L5. For orientation: ELISA stands for enzyme-linked immunosorbent assay.
Experiment [3] has the same target. The experiment can be described thus: competition ELISA, adsorbed YU2 gp120, increasing L5 with 2 ug/ml mAb 17b as competitor; inhibition of mAb 17b binding to gp120, ELISA.
For experiment [4] the target is unchanged. The experiment in a line: ELISA, 100 ng YU2 gp120 adsorbed on the plate, serial dilutions of L5, detection with polyclonal anti-CVN, BSA background subtracted.
The target is the same in experiment [5]. The experiment in a line: competition ELISA on plate-adsorbed YU2 gp120; blocked ligand sCD4 at 0.5 ug/ml, detected with anti-CD4; percent of uninhibited control.
Experiment [6] has the same target. The experiment in a line: ELISA, 100 ng YU2 gp120 adsorbed on the plate, serial dilutions of L5-S12p1, detection with polyclonal anti-CVN, BSA background subtracted.
Description: Error bars indicate standard deviation.
YU2 was adsorbed to a 96-well EIA/RIA plate overnight at 4° C.
Ninety-six well plates (Corning) were coated with either 100 ng of the indicated gp120 or BSA overnight at 4° C. The wells were washed three times with 1×PBS-T (PBS, 0.1% Tween) and non-specific binding blocked with 1% (wt/vol) BSA in PBS. […] After a one hour incubation, the wells were washed and incubated with a 1/2500 dilution of anti-rabbit HRP (Amersham) for one hour at room temperature. The wells were washed three times and the extent of binding was then determined by OPD (o-phenylenediamine, Sigma) and absorbance measured at 450 nm.
The target of experiment [7] is T2, HIV-1 SF162 gp120 (Clade B) (HIV-1 SF162, UniProt P19550 32-502).
T2 construct: domain: gp120
The experiment can be described thus: ELISA, 100 ng gp120 adsorbed on the plate, 50 nM CVN, detection with polyclonal anti-CVN, BSA background subtracted.

B1: L5 chimera (CVN-12p1): CVN, linker of five Gly4Ser repeats, 12p1, C-terminal hexa-histidine tag (other)
chain: LGKFSQTCYNSAIQGSVLTSTCERTNGGYNTSSIDLNSVIENVDGSLKWQPSNFIETCRNTQLAGSSELAAECKTRAQQFVSTKINLDDHIANIDGTLKYEGSGGGGSGGGGSGGGGSGGGGSGGGGSRINNIPWSEAMMHHHHHH
notes: Fusion protein, about 15 kDa; also called the chimera
As for B1, the “IC50 (read off the curve)” value was about 40 nM in experiment [1], about 20 nM in experiment [2] and about 20 nM in experiment [5]. Moreover, the IC50 (in general, the concentration that gives 50% inhibition) in experiment [3] is 38 nM. Moreover, in experiment [4], the EC50 (read off the curve) (in general, the concentration giving half of the maximal effect) is about 9 nM.

B2: L5-S12p1: chimera of CVN, linker of five Gly4Ser repeats and scrambled (non-sense) 12p1 peptide (other)
chain: LGKFSQTCYNSAIQGSVLTSTCERTNGGYNTSSIDLNSVIENVDGSLKWQPSNFIETCRNTQLAGSSELAAECKTRAQQFVSTKINLDDHIANIDGTLKYEGSGGGGSGGGGSGGGGSGGGGSGGGGSWRIMMIPSEANNHHHHHH
notes: check the entry type; also called scrambled chimera
As for B2, the “EC50 (read off the curve)” value in experiment [6] is about 20 nM.

B3: cyanovirin-N (CVN), recombinant, periplasmic expression in E. coli, hexa-histidine tagged (other)
chain: LGKFSQTCYNSAIQGSVLTSTCERTNGGYNTSSIDLNSVIENVDGSLKWQPSNFIETCRNTQLAGSSELAAECKTRAQQFVSTKINLDDHIANIDGTLKYEHHHHHH
notes: Lectin, 11 kDa
With B3, the binding result in experiment [7] is listed as “binds”.
